{"source": "patent US20140161800A1", "about": "(APTEVO RESEARCH AND DEVELOPMENT, published 2014)", "binders": {"B1": {"name": "TSC092 chimeric SMIP (murine 107-1A4 VH-VL scFv-human Fc) (Fc fusion)", "chain": "EIQLQQSGPELVKPGASVKMSCKASGYTFTDYYMHWVKQNNGESLEWIGYFNPYNDYTRYNQNFNGKATLTVDKSSSTAYMQLNSLTSEDSAFYYCARSDGYYDAMDYWGQGTSVTVSSGGGGSGGGGSSGGGGSDVQITQSPSYLAASPGETITINCRASKSISKYLAWYQEKPGKANKLLIHSGSTLQSGIPSRFSGSGSGTDFTLTISSLEPEDFAMYYCQQHIEYPWTFGGGTKLEIKRASSEPKSSDKTHTCPPCPAPEAAGAPSVFLFPPKPKDTLMISRTPEVTCVVVDVSHEDPEVKFNWYVDGVEVHNAKTKPREEQYNSTYRVVSVLTVLHQDWLNGKAYACAVSNKALPAPIEKTISKAKGQPREPQVYTLPPSRDELTKNQVSLTCLVKGFYPSDIAVEWESNGQPENNYKTTPPVLDSDGSFFLYSKLTVDKSRWQQGNVFSCSVMHEALHNHYTQKSLSLSPGK", "notes": "scFv-hinge-Fc"}, "B2": {"name": "TSC085 chimeric SMIP (murine 107-1A4 VL-VH scFv-human Fc) (Fc fusion)", "chain": "DVQITQSPSYLAASPGETITINCRASKSISKYLAWYQEKPGKANKLLIHSGSTLQSGIPSRFSGSGSGTDFTLTISSLEPEDFAMYYCQQHIEYPWTFGGGTKLEIKRAGGGGSGGGGSSGGGGSEIQLQQSGPELVKPGASVKMSCKASGYTFTDYYMHWVKQNNGESLEWIGYFNPYNDYTRYNQNFNGKATLTVDKSSSTAYMQLNSLTSEDSAFYYCARSDGYYDAMDYWGQGTSVTVSSSEPKSSDKTHTCPPCPAPEAAGAPSVFLFPPKPKDTLMISRTPEVTCVVVDVSHEDPEVKFNWYVDGVEVHNAKTKPREEQYNSTYRVVSVLTVLHQDWLNGKAYACAVSNKALPAPIEKTISKAKGQPREPQVYTLPPSRDELTKNQVSLTCLVKGFYPSDIAVEWESNGQPENNYKTTPPVLDSDGSFFLYSKLTVDKSRWQQGNVFSCSVMHEALHNHYTQKSLSLSPGK", "notes": "scFv-hinge-Fc"}, "B3": {"name": "TSC188 humanized SMIP (107-1A4 VL-VH#1 scFv-Fc) (Fc fusion)", "chain": "DIQMTQSPSAMSASVGDRVTITCRASKSISKYLAWFQQKPGKVPKLRIHSGSTLQSGVPSRFSGSGSGTEFTLTISSLQPEDFATYYCQQHIEYPWTFGQGTKVEIKRGGGGSGGGGSGGGGSEVQLVQSGAEVKKPGATVKISCKASGYTFTDYYMHWVQQAPGKGLEWMGYFNPYNDYTRYAEKFQGRVTITADTSTDTAYMELSSLRSEDTAVYYCARSDGYYDAMDYWGQGTTVTVSSSEPKSSDKTHTCPPCPAPEAAGAPSVFLFPPKPKDTLMISRTPEVTCVVVDVSHEDPEVKFNWYVDGVEVHNAKTKPREEQYNSTYRVVSVLTVLHQDWLNGKAYACAVSNKALPAPIEKTISKAKGQPREPQVYTLPPSRDELTKNQVSLTCLVKGFYPSDIAVEWESNGQPENNYKTTPPVLDSDGSFFLYSKLTVDKSRWQQGNVFSCSVMHEALHNHYTQKSLSLSPGK", "notes": "scFv-hinge-Fc"}, "B4": {"name": "TSC189 humanized SMIP (107-1A4 VL-VH#2 scFv-Fc) (Fc fusion)", "chain": "DIQMTQSPSAMSASVGDRVTITCRASKSISKYLAWFQQKPGKVPKLRIHSGSTLQSGVPSRFSGSGSGTEFTLTISSLQPEDFATYYCQQHIEYPWTFGQGTKVEIKRGGGGSGGGGSGGGGSQVQLVQSGAEVKKPGASVKVSCKASGYTFTDYYMHWVRQAPGQGLEWMGYFNPYNDYTRYAQKFQGRVTMTRDTSISTAYMELSSLRSDDTAVYYCARSDGYYDAMDYWGQGTTVTVSSSEPKSSDKTHTCPPCPAPEAAGAPSVFLFPPKPKDTLMISRTPEVTCVVVDVSHEDPEVKFNWYVDGVEVHNAKTKPREEQYNSTYRVVSVLTVLHQDWLNGKAYACAVSNKALPAPIEKTISKAKGQPREPQVYTLPPSRDELTKNQVSLTCLVKGFYPSDIAVEWESNGQPENNYKTTPPVLDSDGSFFLYSKLTVDKSRWQQGNVFSCSVMHEALHNHYTQKSLSLSPGK", "notes": "scFv-hinge-Fc"}, "B5": {"name": "TSC194 Scorpion (huVL-VH#2 107-1A4 scFv-Fc-Cris7 scFv) (bispecific antibody)", "chain": "DIQMTQSPSAMSASVGDRVTITCRASKSISKYLAWFQQKPGKVPKLRIHSGSTLQSGVPSRFSGSGSGTEFTLTISSLQPEDFATYYCQQHIEYPWTFGQGTKVEIKRGGGGSGGGGSGGGGSQVQLVQSGAEVKKPGASVKVSCKASGYTFTDYYMHWVRQAPGQGLEWMGYFNPYNDYTRYAQKFQGRVTMTRDTSISTAYMELSSLRSDDTAVYYCARSDGYYDAMDYWGQGTTVTVSSSEPKSSDKTHTCPPCPAPEAAGAPSVFLFPPKPKDTLMISRTPEVTCVVVDVSHEDPEVKFNWYVDGVEVHNAKTKPREEQYNSTYRVVSVLTVLHQDWLNGKAYACAVSNKALPAPIEKTISKAKGQPREPQVYTLPPSRDELTKNQVSLTCLVKGFYPSDIAVEWESNGQPENNYKTTPPVLDSDGSFFLYSKLTVDKSRWQQGNVFSCSVMHEALHNHYTQKSLSLSPGQRHNNSSLNTGTQMAGHSPNSQVQLVQSGGGVVQPGRSLRLSCKASGYTFTRSTMHWVRQAPGKGLEWIGYINPSSAYTNYNQKFKDRFTISADKSKSTAFLQMDSLRPEDTGVYFCARPQVHYDYNGFPYWGQGTPVTVSSGGGGSGGGGSGGGGSAQDIQMTQSPSSLSASVGDRVTMTCSASSSVSYMNWYQQKPGKAPKRWIYDSSKLASGVPARFSGSGSGTDYTLTISSLQPEDFATYYCQQWSRNPPTFGGGTKLQITR", "notes": "also called humanized SCORPION molecule"}, "B6": {"name": "TSC199 Scorpion (huVL-VH#1 107-1A4 scFv-Fc-Cris7 scFv) (bispecific antibody)", "chain": "DIQMTQSPSAMSASVGDRVTITCRASKSISKYLAWFQQKPGKVPKLRIHSGSTLQSGVPSRFSGSGSGTEFTLTISSLQPEDFATYYCQQHIEYPWTFGQGTKVEIKRGGGGSGGGGSGGGGSEVQLVQSGAEVKKPGATVKISCKASGYTFTDYYMHWVQQAPGKGLEWMGYFNPYNDYTRYAEKFQGRVTITADTSTDTAYMELSSLRSEDTAVYYCARSDGYYDAMDYWGQGTTVTVSSSEPKSSDKTHTCPPCPAPEAAGAPSVFLFPPKPKDTLMISRTPEVTCVVVDVSHEDPEVKFNWYVDGVEVHNAKTKPREEQYNSTYRVVSVLTVLHQDWLNGKAYACAVSNKALPAPIEKTISKAKGQPREPQVYTLPPSRDELTKNQVSLTCLVKGFYPSDIAVEWESNGQPENNYKTTPPVLDSDGSFFLYSKLTVDKSRWQQGNVFSCSVMHEALHNHYTQKSLSLSPGQRHNNSSLNTGTQMAGHSPNSQVQLVQSGGGVVQPGRSLRLSCKASGYTFTRSTMHWVRQAPGKGLEWIGYINPSSAYTNYNQKFKDRFTISADKSKSTAFLQMDSLRPEDTGVYFCARPQVHYDYNGFPYWGQGTPVTVSSGGGGSGGGGSGGGGSAQDIQMTQSPSSLSASVGDRVTMTCSASSSVSYMNWYQQKPGKAPKRWIYDSSKLASGVPARFSGSGSGTDYTLTISSLQPEDFATYYCQQWSRNPPTFGGGTKLQITR", "notes": "as for B5"}}, "key": {"[1]": {"molecular_target": "T1, prostate-specific membrane antigen (PSMA) (human, UniProt Q04609 1-750)", "T1 construct": "whole, on cells; also called glutamate carboxypeptidase II; N-acetylated alpha-linked acidic dipeptidase 1", "T1 sequence (Q04609 whole entry)": "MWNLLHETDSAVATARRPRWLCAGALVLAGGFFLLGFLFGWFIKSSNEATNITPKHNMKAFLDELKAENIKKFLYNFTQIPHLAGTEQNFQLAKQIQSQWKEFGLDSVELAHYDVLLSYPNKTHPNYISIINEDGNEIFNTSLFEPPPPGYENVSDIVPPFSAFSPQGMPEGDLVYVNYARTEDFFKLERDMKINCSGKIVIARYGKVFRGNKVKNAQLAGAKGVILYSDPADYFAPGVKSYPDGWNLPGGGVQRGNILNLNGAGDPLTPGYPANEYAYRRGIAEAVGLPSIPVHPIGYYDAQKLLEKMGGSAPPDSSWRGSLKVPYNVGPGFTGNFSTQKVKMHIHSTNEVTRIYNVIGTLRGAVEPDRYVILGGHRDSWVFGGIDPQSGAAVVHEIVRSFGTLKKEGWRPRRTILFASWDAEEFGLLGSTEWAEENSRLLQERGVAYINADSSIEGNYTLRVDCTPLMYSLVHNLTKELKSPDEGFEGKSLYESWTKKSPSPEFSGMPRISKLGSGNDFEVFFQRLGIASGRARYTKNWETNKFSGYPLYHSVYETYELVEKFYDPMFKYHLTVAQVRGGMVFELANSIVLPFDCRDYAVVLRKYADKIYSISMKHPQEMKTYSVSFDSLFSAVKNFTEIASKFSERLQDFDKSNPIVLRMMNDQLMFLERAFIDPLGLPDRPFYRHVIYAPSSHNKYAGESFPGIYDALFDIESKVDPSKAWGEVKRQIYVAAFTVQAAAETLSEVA", "assay": "flow cytometry on PSMA+ prostate cancer cells (FIG. 1)"}, "[2]": {"molecular_target": "T1, prostate-specific membrane antigen …", "assay": "flow cytometry on PSMA+ C4-2 cells (FIG. 2A)", "protocol": "(§1) A typical experiment would label 300,000 cells per well with a range of 200 nM to 0.1 nM binding molecule in 100 ul of FACS buffer (PBS+2% normal goat serum+2% fetal bovine serum+0.1% sodium azide) on ice, followed by washes and incubation with fluorescently-labeled secondary antibody, goat anti-human IgG (1:400 dilution of Invitrogen #11013=5 ug/ml). After washing secondary antibody off cells, cells were incubated with 7-Aminoactinomycin D (7-AAD) staining solution (BD Pharmingen™ cat#559925) (6 ul of 7AAD to 100 ul of FACS Buffer) for 20 minutes. Signal from bound molecules was detected using a FACSCalibur™ flow cytometer (BD Biosciences) and analyzed by FlowJo flow cytometry analysis software. 7-AAD+ cells were excluded from analysis. Nonlinear regression analysis to determine EC50s was performed in GraphPad Prism® graphing and statistics software."}, "[3]": {"molecular_target": "T1, prostate-specific membrane antigen …", "assay": "flow cytometry on PSMA+ C4-2 cells (FIG. 2B)", "protocol": "as §1"}}}
{"binder": "B1", "values": [{"measurement": "binding result", "setting": "[1]", "value": "binds"}]}
{"binder": "B2", "values": [{"measurement": "binding result", "setting": "[1]", "value": "binds"}]}
{"binder": "B3", "values": [{"measurement": "binding result", "setting": "[2]", "value": "binds"}]}
{"binder": "B4", "values": [{"measurement": "binding result", "setting": "[2]", "value": "binds"}]}
{"binder": "B5", "values": [{"measurement": "binding result", "setting": "[3]", "value": "binds"}]}
{"binder": "B6", "values": [{"measurement": "binding result", "setting": "[3]", "value": "binds"}]}
